According to paper PMC5702617, “Novel peptide probes to assess the tensional state of fibronectin fibers in cancer” (Nature Communications, 2017):
No end group written: not given here.

Experiments:
[1] = target: Fn fibers in PC-3 xenograft tumor tissue of CD1 nude mice (not stated (human PC-3 xenograft in CD1 nude mouse)) (UniProt P11276)
[2] = target: Fn fibers in PC-3 xenograft tumor tissue of CD1 nude mice (not stated (human PC-3 xenograft in CD1 nude mouse)) (UniProt P11276); remark: listed apart in the source
[3] = target: T1, fibronectin isolated from human plasma (human, UniProt P02751 32-2477, in the fibers 5% of the protein was Cy5-labeled (Cy5-maleimide on the cryptic cysteines at FnIII7 and FnIII15)); assay: fluorescence polarisation; anisotropy titration; 100 nM Alexa-488 labeled peptide in PBS, Fn titrated from 0 to 1.4 μM, 20 °C; one-site-binding model; three independent measurements; details: both partners purified
[4] = target: T1, fibronectin isolated from human plasma; assay: single Fn fiber binding assay (confocal microscopy, intensity ratio peptide-Alexa488 / Fn-Cy5); Fn fibers (95% unlabeled, 5% Cy5-labeled) manually pulled onto a silicone sheet and relaxed to about 7% strain; blocked with BSA; varying concentrations of peptide for 1 h, washed, imaged; ratio at 10 μM set to 1; details: both partners purified

Fn fibers in PC-3 xenograft tumor tissue of CD1 nude mice (not stated (human PC-3 xenograft in CD1 nude mouse)), sequence (P11276 33-2477): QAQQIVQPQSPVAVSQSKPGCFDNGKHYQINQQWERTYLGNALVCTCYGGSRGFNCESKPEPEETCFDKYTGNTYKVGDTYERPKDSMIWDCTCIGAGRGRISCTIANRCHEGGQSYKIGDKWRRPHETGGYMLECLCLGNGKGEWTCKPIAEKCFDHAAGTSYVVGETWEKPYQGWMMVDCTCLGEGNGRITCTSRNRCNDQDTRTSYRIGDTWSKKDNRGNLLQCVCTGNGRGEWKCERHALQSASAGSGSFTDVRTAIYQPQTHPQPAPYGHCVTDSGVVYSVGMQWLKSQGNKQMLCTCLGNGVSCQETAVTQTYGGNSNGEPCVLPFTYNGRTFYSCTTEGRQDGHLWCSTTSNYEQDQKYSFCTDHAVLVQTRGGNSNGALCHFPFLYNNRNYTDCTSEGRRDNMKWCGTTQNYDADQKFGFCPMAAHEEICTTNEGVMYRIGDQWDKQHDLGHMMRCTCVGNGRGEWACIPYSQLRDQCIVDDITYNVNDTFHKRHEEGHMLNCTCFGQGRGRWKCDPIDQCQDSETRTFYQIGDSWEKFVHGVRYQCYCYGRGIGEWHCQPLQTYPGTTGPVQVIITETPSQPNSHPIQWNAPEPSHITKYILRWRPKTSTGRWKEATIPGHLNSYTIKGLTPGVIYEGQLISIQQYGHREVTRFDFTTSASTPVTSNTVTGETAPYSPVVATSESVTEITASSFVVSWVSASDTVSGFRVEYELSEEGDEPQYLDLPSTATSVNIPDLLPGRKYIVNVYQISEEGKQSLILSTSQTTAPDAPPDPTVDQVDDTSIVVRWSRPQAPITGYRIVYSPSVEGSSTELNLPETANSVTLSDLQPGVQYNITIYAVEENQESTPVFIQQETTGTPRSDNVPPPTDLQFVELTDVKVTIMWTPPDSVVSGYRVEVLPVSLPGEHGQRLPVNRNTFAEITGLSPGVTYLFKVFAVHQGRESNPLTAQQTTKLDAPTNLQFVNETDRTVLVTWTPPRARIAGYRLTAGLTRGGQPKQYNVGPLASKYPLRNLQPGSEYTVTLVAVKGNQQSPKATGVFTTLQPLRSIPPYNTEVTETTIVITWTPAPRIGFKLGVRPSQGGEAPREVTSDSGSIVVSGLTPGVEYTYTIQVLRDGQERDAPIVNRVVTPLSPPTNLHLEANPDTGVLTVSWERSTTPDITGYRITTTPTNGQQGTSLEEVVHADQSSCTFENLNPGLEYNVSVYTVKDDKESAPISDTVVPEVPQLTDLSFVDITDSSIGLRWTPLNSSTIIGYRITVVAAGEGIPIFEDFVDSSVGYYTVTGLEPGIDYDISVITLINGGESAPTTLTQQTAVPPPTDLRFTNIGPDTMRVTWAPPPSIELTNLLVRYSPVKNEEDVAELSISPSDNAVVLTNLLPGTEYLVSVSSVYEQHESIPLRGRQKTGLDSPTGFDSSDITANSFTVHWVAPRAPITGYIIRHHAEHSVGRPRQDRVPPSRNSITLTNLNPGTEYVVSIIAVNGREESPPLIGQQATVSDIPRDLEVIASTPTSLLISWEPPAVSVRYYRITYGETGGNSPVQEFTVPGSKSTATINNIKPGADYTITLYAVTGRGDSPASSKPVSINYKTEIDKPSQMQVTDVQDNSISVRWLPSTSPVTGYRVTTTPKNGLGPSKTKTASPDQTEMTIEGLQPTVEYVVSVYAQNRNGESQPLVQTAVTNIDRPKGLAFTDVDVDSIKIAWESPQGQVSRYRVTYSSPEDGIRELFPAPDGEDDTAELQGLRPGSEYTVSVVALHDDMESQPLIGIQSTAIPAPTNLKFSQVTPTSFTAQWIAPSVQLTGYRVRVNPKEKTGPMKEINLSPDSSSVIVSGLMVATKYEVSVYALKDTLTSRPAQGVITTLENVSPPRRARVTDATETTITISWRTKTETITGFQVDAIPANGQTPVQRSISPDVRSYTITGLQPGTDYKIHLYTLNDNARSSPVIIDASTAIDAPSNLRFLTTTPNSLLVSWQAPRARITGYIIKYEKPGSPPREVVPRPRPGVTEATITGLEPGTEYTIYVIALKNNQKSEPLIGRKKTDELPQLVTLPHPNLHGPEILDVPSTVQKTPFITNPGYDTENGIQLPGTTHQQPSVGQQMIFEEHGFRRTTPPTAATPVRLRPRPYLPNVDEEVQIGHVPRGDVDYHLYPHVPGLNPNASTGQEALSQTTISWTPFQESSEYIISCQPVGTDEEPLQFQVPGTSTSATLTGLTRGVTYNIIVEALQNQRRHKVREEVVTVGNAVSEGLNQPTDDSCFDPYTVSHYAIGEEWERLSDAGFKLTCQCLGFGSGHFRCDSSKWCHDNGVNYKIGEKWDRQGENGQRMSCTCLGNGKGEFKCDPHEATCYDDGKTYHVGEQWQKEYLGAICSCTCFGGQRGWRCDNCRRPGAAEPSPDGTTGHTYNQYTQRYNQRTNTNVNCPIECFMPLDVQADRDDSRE

| Molecule | tumor uptake of ^111In-FnBPA5 in PC-3-bearing mice, biodistribution at 1, 4, 24 and 96 h p.i. (maximum at 1 h p.i.) [1] [% IA per g] | change of ^111In-FnBPA5 uptake in the liver 4 h p.i. after pre-injection of a 10-fold excess of unlabeled FnBPA5 (24 nmol) [2] [%] | change of ^111In-FnBPA5 uptake in the tumor 4 h p.i. after pre-injection of a 10-fold excess of unlabeled FnBPA5 (24 nmol) [2] [%] | Kd [3] [nM] | Kd [4] [nM] |
| --- | --- | --- | --- | --- | --- |
| ^natIn-FnBPA5 (cold labeled) / ^111In-FnBPA5 (peptide) | 4.74 | -58.2 | -35.6 | – | – |
| {C(Alexa488)}-GQVTTESNLVEFDEESTKGIVTGAVSDHTTVEDTK [FnBPA5-Alexa488] | – | – | – | 75 | 28 |
